T1: FcγRIIa H (human, UniProt P12318 34-217)
T1 construct: extracellular domain; also called FcγRIIa type H; 2aH; not shown: His tag at the C terminus
T1 sequence (looked up): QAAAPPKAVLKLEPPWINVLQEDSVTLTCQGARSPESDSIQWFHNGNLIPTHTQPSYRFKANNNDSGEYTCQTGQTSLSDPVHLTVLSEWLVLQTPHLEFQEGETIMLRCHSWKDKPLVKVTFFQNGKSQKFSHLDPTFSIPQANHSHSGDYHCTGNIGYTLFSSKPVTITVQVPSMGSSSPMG

T2: FcγRIIb (human, UniProt P31994 43-217)
T2 construct: extracellular domain; also called 2b; not shown: His tag at the C terminus
T2 sequence (looked up): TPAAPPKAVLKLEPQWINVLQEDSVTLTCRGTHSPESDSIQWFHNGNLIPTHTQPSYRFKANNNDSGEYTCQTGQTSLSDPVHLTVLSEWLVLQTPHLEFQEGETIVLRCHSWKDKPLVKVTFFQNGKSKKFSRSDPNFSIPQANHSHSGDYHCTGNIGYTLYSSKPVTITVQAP

T3: FcγRIIa H (FcγRIIa, allotype with His at position 131), extracellular domain with C-terminal His tag (human, UniProt P12318 34-217)
T3 construct: extracellular domain; also called FcgRIIa H; 2aH; not shown: His tag at the C terminus
T3 sequence (looked up): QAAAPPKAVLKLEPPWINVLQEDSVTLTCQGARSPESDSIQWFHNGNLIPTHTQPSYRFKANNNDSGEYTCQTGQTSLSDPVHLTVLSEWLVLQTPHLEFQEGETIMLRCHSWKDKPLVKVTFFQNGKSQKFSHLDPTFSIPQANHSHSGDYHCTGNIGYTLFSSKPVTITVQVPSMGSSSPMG

T4: FcγRIIb, extracellular domain with C-terminal His tag (human, UniProt P31994 43-217)
T4 construct: extracellular domain; also called FcgRIIb; 2b; not shown: His tag at the C terminus
T4 sequence (looked up): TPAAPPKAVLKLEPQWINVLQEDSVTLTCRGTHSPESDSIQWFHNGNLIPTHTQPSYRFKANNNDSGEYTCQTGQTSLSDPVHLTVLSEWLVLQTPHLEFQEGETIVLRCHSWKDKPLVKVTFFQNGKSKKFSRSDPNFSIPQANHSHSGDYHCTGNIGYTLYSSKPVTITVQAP


Key:
FcγRIIa H [1] = target: T1, FcγRIIa H; assay: SPR (Biacore); He/Con_2aH divided by He/Con_2b (FcγRIIa H over FcγRIIb)
FcγRIIb = target: T2, FcγRIIb; assay: SPR (Biacore), antibody captured, FcγR as analyte; binding relative to GpH7-A5/GpH7-B3/GpL16-k0 = 100
FcγRIIa H [2] = target: T1, FcγRIIa H; assay: as above
[3] = target: T3, FcγRIIa H (FcγRIIa, allotype with His …); assay: SPR (Biacore); He/Con_2aH divided by He/Con_2b (FcγRIIb)
[4] = target: T4, FcγRIIb, extracellular domain with …; assay: SPR (Biacore), relative binding vs GpH7-A5/GpH7-B3/GpL16-k0
[5] = target: T3, FcγRIIa H (FcγRIIa, allotype with His …); assay: as above

| Binder | He_2aH/2b (IIaH/IIb) (FcγRIIa H [1]) [ratio] | He/Con_2b (FcγRIIb) | He/Con_2aH (FcγRIIa H [2]) | He_2aH/2b (IIaH/IIb) [3] [ratio] | He/Con_2b [4] | He/Con_2aH [5] |
| --- | --- | --- | --- | --- | --- | --- |
| GpH7-A5/GpH7-B3 variant G236_02A/GpL16-k0 (antibody, human IgG1, kappa, Heterodimerized IgG1; mutation in the GpH7-B3 chain only; also called He Ab) heavy 1: not shown heavy 2: not shown light: DIVMTQSPLSLPVTPGEPASISCQASESLVHSNRNTYLHWYLQKPGQSPQLLIYKVSNRFSGVPDRFSGSGSGTDFTLKISRVEAEDVGVYYCSQNTHVPPTFGQGTKVEIERTVAAPSVFIFPPSDEQLKSGTASVVCLLNNFYPREAKVQWKVDNALQSGNSQESVTEQDSKDSTYSLSSTLTLSKADYEKHKVYACEVTHQGLSSPVTKSFNRGEC | 1.44 | 96.5 % of control | 139 % of control |  |  |  |
| GpH7-A5/GpH7-B3 variant N325_13S/GpL16-k0 (antibody, human IgG1, kappa, Heterodimerized anti-glypican-3 IgG1; mutation in one H chain only; also called He Ab) heavy 1: not shown heavy 2: not shown light: DIVMTQSPLSLPVTPGEPASISCQASESLVHSNRNTYLHWYLQKPGQSPQLLIYKVSNRFSGVPDRFSGSGSGTDFTLKISRVEAEDVGVYYCSQNTHVPPTFGQGTKVEIERTVAAPSVFIFPPSDEQLKSGTASVVCLLNNFYPREAKVQWKVDNALQSGNSQESVTEQDSKDSTYSLSSTLTLSKADYEKHKVYACEVTHQGLSSPVTKSFNRGEC |  |  |  | 0.45 | 177 % of HeCon Ab (=100) | 79.7 % of HeCon Ab (=100) |
| GpH7-A5/GpH7-B3 variant L235_12R/GpL16-k0 (antibody, human IgG1, kappa, Heterodimerized IgG1; mutation in the GpH7-B3 chain only; also called He Ab) heavy 1: not shown heavy 2: not shown light: DIVMTQSPLSLPVTPGEPASISCQASESLVHSNRNTYLHWYLQKPGQSPQLLIYKVSNRFSGVPDRFSGSGSGTDFTLKISRVEAEDVGVYYCSQNTHVPPTFGQGTKVEIERTVAAPSVFIFPPSDEQLKSGTASVVCLLNNFYPREAKVQWKVDNALQSGNSQESVTEQDSKDSTYSLSSTLTLSKADYEKHKVYACEVTHQGLSSPVTKSFNRGEC | 3.16 |  | 30.3 % of control |  |  |  |
| GpH7-A5/GpH7-B3 variant N325_14T/GpL16-k0 (antibody, human IgG1, kappa, Heterodimerized anti-glypican-3 IgG1; mutation in one H chain only; also called He Ab) heavy 1: not shown heavy 2: not shown light: DIVMTQSPLSLPVTPGEPASISCQASESLVHSNRNTYLHWYLQKPGQSPQLLIYKVSNRFSGVPDRFSGSGSGTDFTLKISRVEAEDVGVYYCSQNTHVPPTFGQGTKVEIERTVAAPSVFIFPPSDEQLKSGTASVVCLLNNFYPREAKVQWKVDNALQSGNSQESVTEQDSKDSTYSLSSTLTLSKADYEKHKVYACEVTHQGLSSPVTKSFNRGEC |  |  |  | 0.68 | 91.6 % of HeCon Ab (=100) | 62.7 % of HeCon Ab (=100) |

More lines, now with the values ahead:

| He_2aH/2b (IIaH/IIb) (FcγRIIa H [1]) [ratio] | He/Con_2b (FcγRIIb) | He/Con_2aH (FcγRIIa H [2]) | He_2aH/2b (IIaH/IIb) [3] [ratio] | He/Con_2b [4] | He/Con_2aH [5] | Binder |
| --- | --- | --- | --- | --- | --- | --- |
|  |  |  | 0.41 | 99.5 % of HeCon Ab (=100) | 41.2 % of HeCon Ab (=100) | GpH7-A5/GpH7-B3 variant N325_15Y/GpL16-k0 (antibody, human IgG1, kappa, Heterodimerized anti-glypican-3 IgG1; mutation in one H chain only; also called He Ab) heavy 1: not shown heavy 2: not shown light: DIVMTQSPLSLPVTPGEPASISCQASESLVHSNRNTYLHWYLQKPGQSPQLLIYKVSNRFSGVPDRFSGSGSGTDFTLKISRVEAEDVGVYYCSQNTHVPPTFGQGTKVEIERTVAAPSVFIFPPSDEQLKSGTASVVCLLNNFYPREAKVQWKVDNALQSGNSQESVTEQDSKDSTYSLSSTLTLSKADYEKHKVYACEVTHQGLSSPVTKSFNRGEC |
|  |  |  | 0.59 | 94.7 % of HeCon Ab (=100) | 55.5 % of HeCon Ab (=100) | GpH7-A5/GpH7-B3 variant S324_05P/GpL16-k0 (antibody, human IgG1, kappa, Heterodimerized anti-glypican-3 IgG1; mutation in one H chain only; also called He Ab) heavy 1: not shown heavy 2: not shown light: DIVMTQSPLSLPVTPGEPASISCQASESLVHSNRNTYLHWYLQKPGQSPQLLIYKVSNRFSGVPDRFSGSGSGTDFTLKISRVEAEDVGVYYCSQNTHVPPTFGQGTKVEIERTVAAPSVFIFPPSDEQLKSGTASVVCLLNNFYPREAKVQWKVDNALQSGNSQESVTEQDSKDSTYSLSSTLTLSKADYEKHKVYACEVTHQGLSSPVTKSFNRGEC |
|  |  |  | 0.73 | 116 % of HeCon Ab (=100) | 84.5 % of HeCon Ab (=100) | GpH7-A5/GpH7-B3 variant P331_16H/GpL16-k0 (antibody, human IgG1, kappa, Heterodimerized anti-glypican-3 IgG1; mutation in one H chain only; also called He Ab) heavy 1: not shown heavy 2: not shown light: DIVMTQSPLSLPVTPGEPASISCQASESLVHSNRNTYLHWYLQKPGQSPQLLIYKVSNRFSGVPDRFSGSGSGTDFTLKISRVEAEDVGVYYCSQNTHVPPTFGQGTKVEIERTVAAPSVFIFPPSDEQLKSGTASVVCLLNNFYPREAKVQWKVDNALQSGNSQESVTEQDSKDSTYSLSSTLTLSKADYEKHKVYACEVTHQGLSSPVTKSFNRGEC |
|  |  |  | 0.75 | 111 % of HeCon Ab (=100) | 82.8 % of HeCon Ab (=100) | GpH7-A5/GpH7-B3 variant P331_20W/GpL16-k0 (antibody, human IgG1, kappa, Heterodimerized anti-glypican-3 IgG1; mutation in one H chain only; also called He Ab) heavy 1: not shown heavy 2: not shown light: DIVMTQSPLSLPVTPGEPASISCQASESLVHSNRNTYLHWYLQKPGQSPQLLIYKVSNRFSGVPDRFSGSGSGTDFTLKISRVEAEDVGVYYCSQNTHVPPTFGQGTKVEIERTVAAPSVFIFPPSDEQLKSGTASVVCLLNNFYPREAKVQWKVDNALQSGNSQESVTEQDSKDSTYSLSSTLTLSKADYEKHKVYACEVTHQGLSSPVTKSFNRGEC |
